Assay: yeast display, Sf9 membrane polyspecificity reagent, FACS + sequencing; frameworks hold sequencing errors
In short: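 Using colony PCR, genes from sorted yeast display clones were amplified, then sequenced on MiSeq at 2 × 250 and filtered by CDR length. The clones had been stained with 10% biotinylated, detergent-solubilized Sf9 membrane reagent for 1 hour at 4 °C and sorted by FACS into low and high (top ~1%) gates on anti-HA and streptavidin fluorescence. Polyreactivity labels come from the gate of origin.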

Sequence	polyreactivity (PSR sort gate)
QVQLVESGGGLVQAGGSLRLSCAASGRISNNAMGWYRQAPGKERELVAAITYRGSSTYYADSVKGRFTISRDNAKNTFYLQMISLKPEDTAVYYCAAQRSYAYEYWGQGTQVTVSS	high polyreactivity
QVQLVESGGGLVQAGGSLRLSCAASGRTFWKYAMGWSRQAPGKERELVAAITDDDSTDYADSVKGRFTISRDNAKNTVYLQMTSLKPEYTAVYYCNADSSRYYRALEYWGQGTQVTVSS	low polyreactivity
QVQLVESGVGLVQAGGSLRLSCAASGLIFQGYAMGWYTQAPGKERELVAAITLSGGSTYYADSVKGRFTISRDNAKITDYLLMNSLKPEDTAVYYCNAYYPDEPSLYDYWGQGTQVTVSS	low polyreactivity
QVQLVESGGGLVQAGGSLRLSCAASGSIFGNKAMGWYRQAPGKERELVAASSNDGDNSYYADSVKGRFTISRDKAKNTVYLQMNSLKPEDTAVYYCAADYVGVTSVRYDYWGQGTEVTVSS	low polyreactivity
QVQLVESGGGLVQAGGSLRISCAASGSIFRNYAMGWYRQAPGKERELVAAISRNGGTTYYADSVKGRFTISRDNAKNTVYLQMNSLKPEDTAVYYCARLYYTQKDSKTGYGYWGQGTQVTVSS	high polyreactivity
QVQLVESGGGLVQAGGSLTLSCAASGSTFDYNVMGWYRQAPGKERELVAAISNAGTTNYADSVKGRFTISRDNAKNTVYLLMNSLKPEDTAVYYCAADLGYYAAVTKYAEYDYWGQGTQVTVSS	low polyreactivity
QVQHVESGGGLVQAGGSLRLSCAASGRIFVPYTMGWYRQAPGKERELVAAISRSGGSTYYADSVKGRFTISRDNAKNPVYLQMNSLKPEDTAVYYCAARATNVYSKMDYWGQGTQVTVSS	high polyreactivity
QVQLVESGGGLVQAGGSLRLSCAASGRTFSRYAMGWYRQAPGKERELVAAISNSGASTYYADSVKGRFTISRDNAKNTVYLQMNSLKPEDTAVYYCAAERYRLSYQYQEYYYWGQGTQVTVSS	high polyreactivity
QVQLVESGGALVQAGGSLRLSCAASGRIFSRYVIRWYRQAPGKERELVAAISWNGGSTYYADSVKGRFRISRDNAKNTVYLQMNSLKPEDTAVYYCAARVRVTGTYYTKFDYWGQGTQVTVSS	high polyreactivity
QVQLVESGGGLVQAGGSLRLSCAASGRIIARYAMGWSRQAPGKERELVAAISRGGGRTYYADSVKGRFTISRDNATNTVYLQMNSLKPEDTAVYYCAADAYSIASVGYDYWGQGTQVTVSS	high polyreactivity
QVQLVESGGGLVQAGGSLRLSCAPSGFIFQANAMGWYRQAPGKERELLAAIDDGDSTYADSVKGRFTISRDNAKNTVYLQLNSLKPEDTAVYFCATRRNRSYDYWGQGTQVTVSS	low polyreactivity
QVQLVESGGGLDQAGGSLRLSCAASGRTFWNYAMGWYRQAPGKERELVAVIRFSDGSTYYADSVKGRFTISRDNAKNTVYLQMNSLKPEDTAVYYCAAKGPRRWASGFDYWGQGTQVTVSS	low polyreactivity
QVQLQESGGGLVQAGGSLRLSCAASGSISRLDYMGWYRQASGKERELVAAIDNGSTTYYADSVKGRLTISRDNAKYTVYLQMNSLKTEDTAVYFCAAVRGRGGTHAYWGQGTQVTVSG	low polyreactivity
QVQHVESGGGLVQAGGSLRLSCAASGFTFQSYPMGWYRQAPGKERELVAAITRRGTRTYYADSVKGRFTISRDNAKNTVYLQLNSLKPEDTAVYYCAARSPKLEFDYWGQGTQVTVSS	high polyreactivity
QAQLVESGGGLVQAGGSLRLSCAASGRTSYRYVMGWYIQAPGKERELVAAISRGGRTYYADSVKGSFTISRDNAKYTVYLQMNSLNPEVTAVYYCNAAFGVYVATGDSFPRHKKFGFWGQGTQVTVSS	high polyreactivity
QVQLVESGGGLVQAGGSLRLSCAASGRTFHYNAMGWYRQAPGKERELVAAISFNGGGTYYADSVKGRFTISRDNAKNTVYLQMNSLKPEDTAVYYCNVDAAGSNSHARHDSWGQGTQVTVSS	low polyreactivity
QVQLVESGGGLVHAGGSLRLSCAASGRTFYIYAMGWYRQAPGKERELVADITSGGSTYYADSVKGRFTISRDNAKNTVYLQMNSLKPEDTAVYYCAADWVTFYSYTEYDYWGQGTQVTVSS	low polyreactivity
QVQLVESAGGLVQAGGSLRLSCAASGSTFGPYAMGWYRQVPGKERELVAGISYGGGTTFYADSVKGRFTISRDNAKYTVYLQMNSLKPEDTAVYYCAATYRPNRYLEGYWGQGTQVTVSS	high polyreactivity
QVQLVESGGGLVQAGGSLRLSCAASGNTVWYNAMGWFIQAPGKETELVAAISYSGGGTYYAVSVKGRFTISREKAKNTVYLQMNCLKPDDSAVYYCSADTLQRAFVLYDYWGQGTQVTVSS	low polyreactivity
QVQLVDSGGGLVQAGGSLRLSCAASGYTFRYYAMGWYRQEPGKERELVAAITRSGTTYYADSVKGRFTISRDNAKNTVYIQMNSLKTDDTAVYYCNTRVTGNRLGYYYWGQGTQVTVSS	high polyreactivity
QVQLVESGGGLVQAGGSLRLSCAASGSIFYGNAMGWYRQAPGKERELVAAIDGTGASTYYADSVKGRFTISRDNAKNTVYLKMNSLKPEDTAVYYCNKALTSKDYPVRTVERDYWGQGTQVTVSS	low polyreactivity
QVQLVESAGGLVQAGGRLRLSCAASGITISYYAMGWYRQAPGKERELVASISWRGGGTYYADSVKGRFTISRDNAKNTVYLQMNSVKPEDTAVYYCAADEKLYITRYDYWGQGTQVTVSS	low polyreactivity

Sequence	polyreactivity (PSR sort gate)
QVQLVESGGGLVQARGSLRLSCAASGSTFPYVMGWYRQAPWKERELVAAISQRTGSTYYADSVKGRFTISRDNAKNTVYLQMNSLNPEDTAVYYCAKPGYLRPSRYDYWGQGTQVTVSS	high polyreactivity
QVELVESGGGLVQAGGSLRLSCAASGFTFGYNAMGWYRQAPGKERELVAAIRLSGSSTYYADSVKGRFTISRDNAKNTVYLQMNSLNPEDTAVYYCAADGISHWLYRYDYWGQGTQVTVSS	low polyreactivity
QVQLVESGGGLVQEGGSLRLICAASGRIFGDYGMGWYRQAPGKERELVAAITDRGGTTYYADSVKGRFTISRDNAKNTVYLQMNSLNPEDTAVYYCNARQSDIFDYDYWGQGTQVTVSS	low polyreactivity
QVQLVESGGGLVQAGGSLRLSCAASGFTFDTNAMGWYRQAPGKERELVAAISWGGDTTYYADSVKGRFTISRDNAKNTVYLQMNSLKPEDTAVYYCNVYWYDWWGYDYWGQGTQVTVSS	high polyreactivity
QVQLVESGGGLVQAGGSLRLSCAASGIIFQRNDIGWYREAPGKERELVANIRDGGITYADSVKGRFTISRDNAKNTVYLQMNSLKPDDTAVYYCALEDTSPGYGDQSSNAAYYYWGQGTQVTVSS	low polyreactivity
QVQLVESGGGLVQAGGSLRISCAASGRTFPGYTMGWYRQAPGKERELVAAITRVGTTYYADSVKGRFTISRDNAKNTVYLQMNSLKPEDTAVYYCAAVISQGFIRYYYWGQGTQVTVSS	high polyreactivity
QVQIVDSGGGLVQAGCSLRLSCAASGFTFFSYAMGWYRQAHWKERELVAAISRSGGRKYYADSVKGRFTISRDNAKNTVYLLMNSLKPEDTAVYYCAAETKTIPFEYWGQGTQVTVSS	high polyreactivity
QVQLVESGGGLVQAGGSLRLSCAASGNTLSFYTMGWYRQAPGKERELVAAISSDGTTYYADSVKGRFTISRDNAKNTVYLQMNSLKPEDTAVYYCAKAHYEWIWTRYDYWGQGTQVTVSS	low polyreactivity
QVQLVESGGGLVQAGGSLRLSCAASGSTFAEYAMGWYREAPGKERELVADITWSGGSTYYADSVKGRFTISRDNAKNTVYLQMNSLKPDDTAVYYCYFWPVFYDFYLYGYWGQGTQVTVSS	low polyreactivity
QVQLVESGGGLVQAGGSLRLSCAASGRIFSWYAMGWYRQAPGKERELVADITNGGSTYYADSVKGRFTISRDNAKNTVYLQMNSLKPEDTAVYYCAAAYIHRLGRVLPSVYSIGRDYWGQGTQVTVSS	low polyreactivity
QVQLVESGGGLVQAGGSLRLSCAASGRTLERYSMGWYRQAPGKEREFVAAIRWSGGSTYYADSVKGRFTISRDNAKNTVYLQMNSLKPEDTAVYYCNADWQSYYWAGDGYDYWGQGTQVTVSS	low polyreactivity
QVQLVESGGGLVQAGGSLRLSCAASGSNFGANAMGWYRQAPGKEREFVAAISGSGTTTYYADSVKGRFTISRDNAKNTVYLQMNSLKPEDTAVYYCAKTRKAHWLGYWGQGTQVTVSS	low polyreactivity
QVQLVESGGGLVQAGGSLRLSCAPSGFTSWQYAMGWYRPAPGKERELVAAISVSGASTYYADSVKGRFTISRDNAKNTVYLQMNSLKPEDTAVYYCAAAYVRYPTTRYFYWGQGTQVTVSS	high polyreactivity
QVQLVESGGGLVQAGGSLRLSCAASGSTFPYYAMGWYRQAPGKERELVAAISRRGGSTYYADSVKGRFTISRDNAKNTVYLQMNSLKPEDTAVYYCAAGYYPSSSGDDYWGQGTQVTVSS	high polyreactivity
QVQLVESGGGLDQAGGSLRLSCAASGIIFWYNARGWYRQAPGKERELVAAINYGGSTNYADSVKGRFTISRDNAKNTVYLQMNSLKQEDTAVDYCNADRSVIHRGYIWQPGRNDYWGQGTQVNVSS	low polyreactivity
QVQLVESGGGLVQAGGSLRLSCAASGYIFEYYAMGWYRQAPGKDRELVAAISWSGGSTYYADSVKGRFTISRDNAKNTVYLQMNSLKPEDTAVYYCAAESYLPYWDSYYRYDYWGQGTQVTVSS	low polyreactivity
QVQLVETGGGLVQAGGSLRLSCAGSVSIFNRNAMGWYRQAPGKERELVAAISNSGARTYYADSVKGRFTISRDNAKNTVYLQMNSLKPEDTAVYYCTAVRRRSKLYNYWGQGTQVTVSS	high polyreactivity
QVQLVESGGGLVQAGGSLRLSCAASGRIFSKNAMGWYRQAPGKVRELVAAISYITGSTYADSVKGRFKISRDNAKNTDYLQMNSLKPEYTAVYYCAASSTWYGYYIYVFRAYDYWGQGTQLTVSS	low polyreactivity
QVQLVESGGGLVQAGGSLRLSCAASGSTFKHYAMGWYRQAPGKERELVAAISERGGSTYYADSVKGRFTISRDNAKNTVYLQMNSLKPEDTAVYYCARRVSRFSKFGYWGQGTQVTVSS	high polyreactivity
QVQLVESGGGLVQAGGSLRLSCAASGFIFATYVMGWYRQAPGKERELVAAISWSGSSTFYADSVKGRFTISRDNAKNTVYLQMNSLKPEDTAVYYCAALGDYVGNDYWGQGTQVTVSS	high polyreactivity
QLQLVESGGGLVQAGGSLRLSCAASGRIFTYNALGWYRQAPGKERELVARIRRSGGTYYADSVKGRFTISRDNAKNTVYLQMNSLKPEDTAVYYCAVDLYIYYREYDYWGQGTQVTVSS	high polyreactivity

From the nanobody polyreactivity screen of Harvey et al. (2022)
